In PMC8158685, “MexAB-OprM Efflux Pump Interaction with the Peptidoglycan of Escherichia coli and Pseudomonas aeruginosa” (International Journal of Molecular Sciences, 2021):

B1: OprM (wild type, full-length) (natural protein)
chain: CSLIPDYQRPEAPVAAAYPQGQAYGQNTGAAAVPAADIGWREFFRDPQLQQLIGVALENNRDLRVAALNVEAFRAQYRIQRADLFPRIGVDGSGTRQRLPGDLSTTGSPAISSQYGVTLGTTAWELDLFGRLRSLRDQALEQYLATEQAQRSAQTTLVASVATAYLTLKADQAQLQLTKDTLGTYQKSFDLTQRSYDVGVASALDLRQAQTAVEGARATLAQYTRLVAQDQNALVLLLGSGIPANLPQGLGLDQTLLTEVPAGLPSDLLQRRPDILEAEHQLMAANASIGAARAAFFPSISLTANAGTMSRQLSGLFDAGSGSWLFQPSINLPIFTAGSLRASLDYAKIQKDINVAQYEKAIQTAFQEVADGLAARGTFTEQLQAQRDLVKASDEYYQLADKRYRTGVDNYLTLLDAQRSLFTAQQQLITDRLNQLTSEVNLYKALGGGWNQQTVTQQQTAKKEDPQA
notes: OprM, outer membrane factor of the MexAB-OprM efflux pump, Pseudomonas aeruginosa; wild type, 'OprM full-length'; The pure protein was reloaded on Ni-NTA for the detergent exchange, so the His tag was probably still on it; Natural OprM is a lipoprotein whose signal peptide is cut on export; also called OMF; outer-membrane factor channel; source: E. coli C43 deleted of acrB, pBAD33, purified …
B2: MexA (natural protein)
chain: CGKSEAPPPAQTPEVGIVTLEAQTVTLNTELPGRTNAFRIAEVRPQVNGIILKRLFKEGSDVKAGQQLYQIDPATYEADYQSAQANLASTQEQAQRYKLLVADQAVSKQQYADANAAYLQSKAAVEQARINLRYTKVLSPISGRIGRSAVTEGALVTNGQANAMATVQQLDPIYVDVTQPSTALLRLRRELASGQLERAGDNAAKVSLKLEDGSQYPLEGRLEFSEVSVDEGTGSVTIRAVFPNPNNELLPGMFVHAQLQEGVKQKAILAPQQGVTRDLKGQATALVVNAQNKVELRVIKADRVIGDKWLVTEGLNAGDKIITEGLQFVQPGVEVKTVPAKNVASAQKADAAPAKTDSKG
notes: MexA, periplasmic membrane fusion protein of the MexAB-OprM efflux pump, Pseudomonas aeruginosa; wild type; The pure protein was reloaded on Ni-NTA for the detergent exchange, so the His tag was probably still on it; Natural MexA is a lipoprotein whose signal peptide is cut; also called MFP; periplasmic membrane fusion protein; source: for one experiment exchanged into C12E8 on Ni-NTA

Assays:
[1] = target: the molecule itself; assay: SEC; Superdex 200 gel filtration in TBS (20 mM Tris-HCl pH 8, 150 mM NaCl) with 0.05% DDM, last step of the purification
[2] = target: B2; assay: pull-down; PG of P. aeruginosa, DDM; MexA and OprM mixed at 3:1 compared with 2:1; ratio in the retained complex from relative band intensities on SDS-PAGE; settings: both partners purified
[3] = target: T1, OprM deleted of the flexible C-terminus residues 473-485 (OprMΔCter) (P. aeruginosa (PAO1 genome as template), UniProt Q51487 18-472); assay: pull-down; purified insoluble PG of P. aeruginosa PAO1 as the pelleted matrix; MexA and OprM pre-mixed 2:1 (PG:MexA:OprM 100:2:1); 20 mM Tris-HCl pH 8.0, 300 mM NaCl, 0.05% DDM; 1 h room temperature; three washes; pellet on SDS-PAGE; proteins released by lysozyme; settings: both partners purified
T1 construct: signal peptide in the construct (forward primer begins at the ATG of the precursor); OprM of Pseudomonas aeruginosa PAO1 without its last 13 residues 473-485; PCR fragment NdeI-XmaI in pBAD33; also called OprM∆Cter; source: E. coli C43 deleted of acrB, pBAD33, purified (Ni-NTA, Superdex 200) in DDM
T1 sequence (looked up): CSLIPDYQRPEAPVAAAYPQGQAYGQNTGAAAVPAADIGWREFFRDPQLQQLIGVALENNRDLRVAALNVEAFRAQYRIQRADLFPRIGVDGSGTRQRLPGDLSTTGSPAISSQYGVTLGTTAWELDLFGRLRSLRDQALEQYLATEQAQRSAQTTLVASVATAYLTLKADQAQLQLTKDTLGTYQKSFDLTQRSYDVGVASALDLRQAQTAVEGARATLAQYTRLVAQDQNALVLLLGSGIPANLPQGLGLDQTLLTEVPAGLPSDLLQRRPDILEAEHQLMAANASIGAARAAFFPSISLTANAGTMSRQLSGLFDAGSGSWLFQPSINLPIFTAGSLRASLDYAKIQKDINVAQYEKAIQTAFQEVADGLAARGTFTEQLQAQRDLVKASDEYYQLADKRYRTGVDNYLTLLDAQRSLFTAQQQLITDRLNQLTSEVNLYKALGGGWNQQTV

[4] = target: B1; assay: pull-down; purified insoluble peptidoglycan (PG) of E. coli C43 as the pelleted matrix; MexA and OprM pre-mixed 2:1 (PG:MexA:OprM 100:2:1); 20 mM Tris-HCl pH 8.0, 300 mM NaCl, 0.05% DDM; 1 h room temperature; three washes; pellet on SDS-PAGE; proteins released by lysozyme; settings: both partners purified

Binder: B1
- stoichiometry N [1]: 3
- stoichiometry N [2]: 2 MexA:OprM

Binder: B2
- binding result [3]: binds
- binding result [4]: binds
